Experimental data from IntAct's records for PubMed 24525234.

B1: Rho guanine nucleotide exchange factor 2 (Mus musculus), Q60875 (parent)
chain: MSRIESLTRARIDRSKEQATKTREKEKMKEAKDARYTNGHLFTTISVSGMTMCYACNKSITAKEALICPTCNVTIHNRCKDTLANCTKVKQKQQKAALLRNNTALQSVSLRSKTTTRERPTSAIYPSDSFRQSLLGSRRGLSSLSLAKSVSTTNIAGHFNDESPLGLRQILSQSTDSLNMRNRTLSVESLIDEGVEVFYNELMSDFEMDEKDFEADSWSLAVDSSFLQQHKKEVMKKQDVIYELIQTELHHVRTLKIMTRLFRTGMLEELQMEPEVVQGLFPCVDELSDIHTRFLNQLLERRRQALCPGSTRNFVIHRLGDLLISQFSGSNAEQMRKTYSEFCSRHTKALKLYKELYARDKRFQQFIRKMTRSAVLKRHGVQECILLVTQRITKYPVLINRILQNSHGVEEEYQDLASALGLVKELLSNVDQDVHELEKEARLQEIYNRMDPRAQTPVPGKGPFGRDELLRRKLIHEGCLLWKTATGRFKDVLLLLMTDVLVFLQEKDQKYIFTSLDKPSVVSLQNLIVRDIANQAKGMFLISSGPPEMYEVHAASRDDRTTWIRVIQQSVRLCPSREDFPLIETEDKAYLRRIKTKLQQKNQALVELLQKNVELFAEMVHFQALKAGFVGMPPPALPRGLFRLESFESLRGERLLKDALREVEGLKDLLLGPCVDLPMTSREPALPLDSDSGSCPGVTANGEARTFNGSIELCRADSDSSQKDRNGNQLRSPQEEVLQPLINLYGLLHGLQAVVVQQERLMEALFPEGPERWEKLSRANSRDGEAGRAAVASVTPEKQATELALLQRQHTLLQEELRRCQRLGEERATEAGSLEARLRESEQARALLEREAEEIRRQLAALGQNEPLPAEAPWARRPLDPRRRSLPAGDALYLSFNPPQPSRGHDRLDLPVTVRSLHRPFDDREAQELGSPEDRLQDSSDPDTGSEEEVSSRLSPPHSPRDFTRMQDIPEETESRDGEPTASES

Variants of: B1
Conditions: with rhoa_human RHOA

Variant | effect of a mutation on the interaction
E243K | disrupting interaction
